± gives the standard deviation of the averaged measurements.
Test: total protein half-life in vivo (active degradation + dilution); higher = more stable protein
[1] = E. coli NCM3722 delta-clpP delta-lon delta-hslV, growth: N-lim chemostat, doubling time 6 h
[2] = E. coli NCM3722 delta-clpP, growth: N-lim chemostat, doubling time 6 h
[3] = E. coli NCM3722 delta-hslV, growth: N-lim chemostat, doubling time 6 h
[4] = E. coli NCM3722 delta-lon, growth: N-lim chemostat, doubling time 6 h
[5] = E. coli NCM3722 delta-smpB, growth: N-lim chemostat, doubling time 6 h
[6] = wild type E. coli NCM3722, growth: C-lim chemostat, doubling time 3 h
[7] = wild type E. coli NCM3722, growth: C-lim chemostat, doubling time 6 h
[8] = wild type E. coli NCM3722, growth: C-lim chemostat, doubling time 12 h
[9] = wild type E. coli NCM3722, growth: N-lim chemostat, doubling time 6 h
[10] = wild type E. coli NCM3722, growth: N-lim chemostat, doubling time 12 h
[11] = wild type E. coli NCM3722, growth: P-lim chemostat, doubling time 6 h
[12] = wild type E. coli NCM3722, growth: P-lim chemostat, doubling time 12 h

Question: What does the source list for “MSSSCIEEVSVPDDNWYRIANELLSRAGIAINGSAPADIRVKNPDFFKRVLQEGSLGLGESYMDGWWECDRLDMFFSKVLRAGLENQLPHHFKDTLRIAGARLFNLQSKKRAWIVGKEHYDLGNDLFSRMLDPFMQYSCAYWKDADNLESAQQAKLKMICEKLQLKPGMRVLDIGCGWGGLAHYMASNYDVSVVGVTISAEQQKMAQERCEGLDVTILLQDYRDLNDQFDRIVSVGMFEHVGPKNYDTYFAVVDRNLKPEGIFLLHTIGSKKTDLNVDPWINKYIFPNGCLPSVRQIAQSSEPHFVMEDWHNFGADYDTTLMAWYERFLAAWPEIADNYSERFKRMFTYYLNACAGAFRARDIQLWQVVFSRGVENGLRVAR [P0A9H7]”?
Answer: total protein half-life in vivo [1]: 2.09 ± 0.32 h; total protein half-life in vivo [2]: 0.86 ± 0.041 h; total protein half-life in vivo [3]: 0.465 ± 0.078 h; total protein half-life in vivo [4]: 0.662 ± 0.29 h; total protein half-life in vivo [5]: 0.503 ± 0.04 h; total protein half-life in vivo [6]: 0.474 ± 0.077 h; total protein half-life in vivo [7]: 0.6003 ± 0.0022 h; total protein half-life in vivo [8]: 0.871 ± 0.26 h; total protein half-life in vivo [9]: 0.643 ± 0.12 h; total protein half-life in vivo [10]: 0.868 ± 0.22 h; total protein half-life in vivo [11]: 0.649 ± 0.26 h; total protein half-life in vivo [12]: 1.27 ± 0.76 h

Question: With “MSSSRPVFRSRWLPYLLVAPQLIITVIFFIWPAGEALWYSLQSVDPFGFSSQFVGLDNFVTLFHDSYYLDSFWTTIKFSTFVTVSGLLVSLFFAALVEYIVRGSRFYQTLMLLPYAVAPAVAAVLWIFLFNPGRGLITHFLAEFGYDWNHAQNSGQAMFLVVFASVWKQISYNFLFFYAALQSIPRSLIEAAAIDGAGPIRRFFKIALPLIAPVSFFLLVVNLVYAFFDTFPVIDAATSGGPVQATTTLIYKIYREGFTGLDLASSAAQSVVLMFLVIVLTVVQFRYVESKVRYQ” as the sequence, how does the “total protein half-life in vivo” value [11] read?
Answer: 5.34 h

Question: And the “total protein half-life in vivo” value [12]?
Answer: 11.9 ± 0.84 h

Question: What does the source list for “MSSTLREASKDTLQAKDKTYHYYSLPLAAKSLGDITRLPKSLKVLLENLLRWQDGNSVTEEDIHALAGWLKNAHADREIAYRPARVLMQDFTGVPAVVDLAAMREAVKRLGGDTAKVNPLSPVDLVIDHSVTVDRFGDDEAFEENVRLEMERNHERYVFLKWGKQAFSRFSVVPPGTGICHQVNLEYLGKAVWSELQDGEWIAYPDTLVGTDSHTTMINGLGVLGWGVGGIEAEAAMLGQPVSMLIPDVVGFKLTGKLREGITATDLVLTVTQMLRKHGVVGKFVEFYGDGLDSLPLADRATIANMSPEYGATCGFFPIDAVTLDYMRLSGRSEDQVELVEKYAKAQGMWRNPGDEPIFTSTLELDMNDVEASLAGPKRPQDRVALPDVPKAFAASNELEVNATHKDRQPVDYVMNGHQYQLPDGAVVIAAITSCTNTSNPSVLMAAGLLAKKAVTLGLKRQPWVKASLAPGSKVVSDYLAKAKLTPYLDELGFNLVGYGCTTCIGNSGPLPDPIETAIKKSDLTVGAVLSGNRNFEGRIHPLVKTNWLASPPLVVAYALAGNMNINLASEPIGHDRKGDPVYLKDIWPSAQEIARAVEQVSTEMFRKEYAEVFEGTAEWKGINVTRSDTYGWQEDSTYIRLSPFFDEMQATPAPVEDIHGARILAMLGDSVTTDHISPAGSIKPDSPAGRYLQGRGVERKDFNSYGSRRGNHEVMMRGTFANIRIRNEMVPGVEGGMTRHLPDSDVVSIYDAAMRYKQEQTPLAVIAGKEYGSGSSRDWAAKGPRLLGIRVVIAESFERIHRSNLIGMGILPLEFPQGVTRKTLGLTGEEKIDIGDLQNLQPGATVPVTLTRADGSQEVVPCRCRIDTATELTYYQNDGILHYVIRNMLK”?
Answer: total protein half-life in vivo [1]: 5.26 ± 0.24 h; total protein half-life in vivo [2]: 4.44 ± 0.1 h; total protein half-life in vivo [3]: 4.73 ± 0.14 h; total protein half-life in vivo [4]: 4.71 ± 0.15 h; total protein half-life in vivo [5]: 4.362 ± 0.015 h; total protein half-life in vivo [6]: 3.14 ± 0.26 h; total protein half-life in vivo [7]: 5.47 ± 0.13 h; total protein half-life in vivo [8]: 9.9 ± 0.64 h; total protein half-life in vivo [9]: 4.65 ± 0.17 h; total protein half-life in vivo [10]: 7.39 ± 0.19 h; total protein half-life in vivo [11]: 5.81 ± 0.33 h; total protein half-life in vivo [12]: 11 ± 0.17 h

Question: Which “total protein half-life in vivo” value [1] does the source give for “MSSTNIEQVMPVKLAQALANPLFPALDSALRSGRHIGLDELDNHAFLMDFQEYLEEFYARYNVELIRAPEGFFYLRPRSTTLIPRSVLSELDMMVGKILCYLYLSPERLANEGIFTQQELYDELLTLADEAKLLKLVNNRSTGSDVDRQKLQEKVRSSLNRLRRLGMVWFMGHDSSKFRITESVFRFGADVRAGDDPREAQRRLIRDGEAMPIENHLQLNDETEENQPDSGEEE” here?
Answer: 6.36 ± 0.27 h

Question: What about the “total protein half-life in vivo” value [2] of the same sequence?
Answer: 6.18 ± 0.4 h

Question: What about the “total protein half-life in vivo” value [4] of the same sequence?
Answer: 6.21 ± 0.7 h

Question: And the “total protein half-life in vivo” value [5]?
Answer: 5.67 ± 0.27 h

Question: And the “total protein half-life in vivo” value [6]?
Answer: 2.98 ± 0.069 h

Question: What about the “total protein half-life in vivo” value [7] of the same sequence?
Answer: 5.85 ± 0.17 h

Question: And the “total protein half-life in vivo” value [8]?
Answer: 11.1 ± 0.5 h

Question: And the “total protein half-life in vivo” value [9]?
Answer: 5.85 ± 0.31 h

Question: And the “total protein half-life in vivo” value [10]?
Answer: 9.43 ± 0.28 h

Question: And the “total protein half-life in vivo” value [11]?
Answer: 5.716 ± 0.029 h

Question: What about the “total protein half-life in vivo” value [12] of the same sequence?
Answer: 10.7 ± 0.54 h

Question: For “MSSVDILVPDLPESVADATVATWHKKPGDAVVRDEVLVEIETDKVVLEVPASADGILDAVLEDEGTTVTSRQILGRLREGNSAGKETSAKSEEKASTPAQRQQASLEEQNNDALSPAIRRLLAEHNLDASAIKGTGVGGRLTREDVEKHLAKAPAKESAPAAAAPAAQPALAARSEKRVPMTRLRKRVAERLLEAKNSTAMLTTFNEVNMKPIMDLRKQYGEAFEKRHGIRLGFMSFYVKAVVEALKRYPEVNASIDGDDVVYHNYFDVSMAVSTPRGLVTPVLRDVDTLGMADIEKKIKELAVKGRDGKLTVEDLTGGNFTITNGGVFGSLMSTPIINPPQSAILGMHAIKDRPMAVNGQVEILPMMYLALSYDHRLIDGRESVGFLVTIKELLEDPTRLLLDV [P0AFG6]”, which “total protein half-life in vivo” value [2] is on record?
Answer: 6.24 ± 0.17 h

Question: And the “total protein half-life in vivo” value [3]?
Answer: 5.462 ± 0.018 h

Question: What about the “total protein half-life in vivo” value [4] of the same sequence?
Answer: 5.45 ± 0.14 h

Question: What about the “total protein half-life in vivo” value [5] of the same sequence?
Answer: 4.93 ± 0.068 h

Question: And the “total protein half-life in vivo” value [6]?
Answer: 2.97 ± 0.23 h

Question: What about the “total protein half-life in vivo” value [7] of the same sequence?
Answer: 5.7 ± 0.27 h

Question: And the “total protein half-life in vivo” value [8]?
Answer: 11.3 ± 0.7 h

Question: What about the “total protein half-life in vivo” value [9] of the same sequence?
Answer: 5.17 ± 0.35 h

Question: And the “total protein half-life in vivo” value [10]?
Answer: 11 ± 2.5 h

Question: And the “total protein half-life in vivo” value [11]?
Answer: 5.72 ± 0.087 h

Question: And the “total protein half-life in vivo” value [12]?
Answer: 12 ± 1.1 h

Question: For “MSTANQKPTESVSLNAFKQPKAFYLIFSIELWERFGYYGLQGIMAVYLVKQLGMSEADSITLFSSFSALVYGLVAIGGWLGDKVLGTKRVIMLGAIVLAIGYALVAWSGHDAGIVYMGMAAIAVGNGLFKANPSSLLSTCYEKNDPRLDGAFTMYYMSVNIGSFFSMIATPWLAAKYGWSVAFALSVVGLLITIVNFAFCQRWVKQYGSKPDFEPINYRNLLLTIIGVVALIAIATWLLHNQEVARMALGVVAFGIVVIFGKEAFAMKGAARRKMIVAFILMLEAIIFFVLYSQMPTSLNFFAIRNVEHSILGLAVEPEQYQALNPFWIIIGSPILAAIYNKMGDTLPMPTKFAIGMVMCSGAFLILPLGAKFASDAGIVSVSWLVASYGLQSIGELMISGLGLAMVAQLVPQRLMGFIMGSWFLTTAGANLIGGYVAGMMAVPDNVTDPLMSLEVYGRVFLQIGVATAVIAVLMLLTAPKLHRMTQDDAADKAAKAAVA”, which “total protein half-life in vivo” value [10] is on record?
Answer: 4.49 h
